Experiment [1] deals with Human VEGF-A treated with DTT (reduced) (human) (UniProt P15692). Put plainly: phage ELISA on DTT-reduced VEGF-A 121. On the technique in general: ELISA stands for enzyme-linked immunosorbent assay.
Experiment [2] has as its target Isoform 121 of human VEGF-A (Peprotech) (human) (UniProt P15692). As to the kind of experiment: phage ELISA on coated VEGF-A 121, without KDR-Fc.
Experiment [3] shares this target. As to the kind of experiment: phage ELISA on native VEGF-A 121.
The target is the same in experiment [4]. As to the kind of experiment: phage ELISA on coated VEGF-A 121, competitor KDR-Fc 2 µg/mL.
The target is the same in experiment [5]. Put plainly: ELISA on coated antigen, 2 µg/mL, 9E10 detection.
Experiment [6] has the same target. Put plainly: ELISA on coated antigen, 0.2 µg/mL, 9E10 detection.
Experiment [7] has the same target. Put plainly: ELISA on coated antigen, 20 µg/mL, 9E10 detection.

Chain of Isoform 121 of human VEGF-A (Peprotech) (human) (P15692 other isoform, or with tags, fused parts or gaps): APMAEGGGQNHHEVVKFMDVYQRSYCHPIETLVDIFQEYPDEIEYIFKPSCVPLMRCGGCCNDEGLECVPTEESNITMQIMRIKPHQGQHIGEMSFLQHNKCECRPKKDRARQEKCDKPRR
Chain of Human VEGF-A treated with DTT (reduced) (human) (P15692 other isoform, or with tags, fused parts or gaps limits assumed): as the sequence (P15692 other isoform, or with tags, fused parts or gaps) above

B1: phage clone 2H1-F (scFv, not shown: large carriers; small tags and cut ends)
scFv: QQVQLVQSGAEVKKPGESLKISCKGSGYSFTSYWIGWVRQMPGKGLEWMGIIYPGDSDTRYSPSFQGQVTISADKSISTAYLQWSSLKASDTAMYYCARLVVRDTEIWGQGTMVTVSSAPQAKSSGSGSESKVDQAVVTQEPSLTVSPGGTVTLTCASSIGAVTSGNYPNWFQQRPGQPPRALIYSTSNKHSWTPARFSGSLLGGKAALTLSGAQPEDEAEYYCLLSYSGARPVFGGGTKLTVLG
Turning to B1, the Optical Density (492 nm) in experiment [1] came out at 0.103 OD 492 nm; in experiment [2], 1.15 OD 492 nm; in experiment [3], 1.25 OD 492 nm; in experiment [4], 0.577 OD 492 nm.

B2: Fab 2H1-32 (Fab, V domains shown)
VH: QVQLVQSGAEVKKPGESLKISCKGSGYSFTSYWIGWVRQMPGKGLEWMGIIYPGDSDTRYSPSFQGQVTISADKSISTAYLQWSSLKASDTAMYYCARLVVRDTEIWGQGTMVTVSS
VL: QAVVTQEPSLTVSPGGTVTLTCASSIGAVTSGNYPNWFQQRPGQPPRALIYSTSNKHSWTPARFSGSLLGGKAALTLSGAQPEDEAEYYCLLSYSGARPVFGGGTKLTVLG
For the molecule B2, the Optical Density (492 nm) in experiment [5] was determined as 1.09 OD 492 nm; in experiment [6], 0.675 OD 492 nm; in experiment [7] it was 1.02 OD 492 nm.

Source of the values: patent publication US20100151566A1.
